Data published in patent US20220289795, “EFFICIENT METHOD FOR PREPARING PPR PROTEIN AND USE OF THE SAME” (EditForce, Inc., published 2022).

Experiments:
[1] = test system: v2_PPR2 (Artificial Sequence); test: ELONA
[2] = test system: v2_PPR1 (Artificial Sequence); test: ELONA
[3] = test system: v2_PPR3 (Artificial Sequence); test: ELONA
[4] = test system: v2_PPR5 (Artificial Sequence); test: ELONA
v3.1_PPR9 = target: T1, v3.1_PPR9 (Artificial Sequence); test: ELONA; RPB-ELISA; conditions: tags: luciferase fusion; label: 5'-biotin
T1 chain: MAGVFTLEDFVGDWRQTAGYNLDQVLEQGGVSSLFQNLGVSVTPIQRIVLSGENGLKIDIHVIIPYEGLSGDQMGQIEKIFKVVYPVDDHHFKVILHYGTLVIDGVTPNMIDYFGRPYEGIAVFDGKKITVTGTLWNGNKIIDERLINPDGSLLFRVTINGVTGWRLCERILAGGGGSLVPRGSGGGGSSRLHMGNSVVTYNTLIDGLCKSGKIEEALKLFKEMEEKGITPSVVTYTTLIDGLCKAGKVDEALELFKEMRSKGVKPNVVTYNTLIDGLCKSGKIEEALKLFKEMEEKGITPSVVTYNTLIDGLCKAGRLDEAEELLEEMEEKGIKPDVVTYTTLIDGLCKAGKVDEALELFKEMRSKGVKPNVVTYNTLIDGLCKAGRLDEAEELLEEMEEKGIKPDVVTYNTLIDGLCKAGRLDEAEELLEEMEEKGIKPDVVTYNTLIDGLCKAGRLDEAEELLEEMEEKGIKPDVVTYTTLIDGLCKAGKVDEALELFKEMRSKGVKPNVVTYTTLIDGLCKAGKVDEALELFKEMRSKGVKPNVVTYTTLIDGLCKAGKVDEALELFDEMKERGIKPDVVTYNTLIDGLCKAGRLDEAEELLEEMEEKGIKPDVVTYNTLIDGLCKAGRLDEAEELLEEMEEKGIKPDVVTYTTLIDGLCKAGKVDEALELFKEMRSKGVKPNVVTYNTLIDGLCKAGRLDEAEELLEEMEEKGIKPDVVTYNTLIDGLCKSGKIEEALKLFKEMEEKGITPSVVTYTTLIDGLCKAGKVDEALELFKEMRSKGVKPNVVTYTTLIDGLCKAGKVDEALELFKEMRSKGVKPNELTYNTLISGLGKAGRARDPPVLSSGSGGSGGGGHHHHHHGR

NL_v2_PPR9 = target: T2, NL_v2_PPR9 (Artificial Sequence); test: ELONA; RPB-ELISA; conditions: tags: N-term luciferase, C-term 6xHis; label: 5'-biotin
T2 chain: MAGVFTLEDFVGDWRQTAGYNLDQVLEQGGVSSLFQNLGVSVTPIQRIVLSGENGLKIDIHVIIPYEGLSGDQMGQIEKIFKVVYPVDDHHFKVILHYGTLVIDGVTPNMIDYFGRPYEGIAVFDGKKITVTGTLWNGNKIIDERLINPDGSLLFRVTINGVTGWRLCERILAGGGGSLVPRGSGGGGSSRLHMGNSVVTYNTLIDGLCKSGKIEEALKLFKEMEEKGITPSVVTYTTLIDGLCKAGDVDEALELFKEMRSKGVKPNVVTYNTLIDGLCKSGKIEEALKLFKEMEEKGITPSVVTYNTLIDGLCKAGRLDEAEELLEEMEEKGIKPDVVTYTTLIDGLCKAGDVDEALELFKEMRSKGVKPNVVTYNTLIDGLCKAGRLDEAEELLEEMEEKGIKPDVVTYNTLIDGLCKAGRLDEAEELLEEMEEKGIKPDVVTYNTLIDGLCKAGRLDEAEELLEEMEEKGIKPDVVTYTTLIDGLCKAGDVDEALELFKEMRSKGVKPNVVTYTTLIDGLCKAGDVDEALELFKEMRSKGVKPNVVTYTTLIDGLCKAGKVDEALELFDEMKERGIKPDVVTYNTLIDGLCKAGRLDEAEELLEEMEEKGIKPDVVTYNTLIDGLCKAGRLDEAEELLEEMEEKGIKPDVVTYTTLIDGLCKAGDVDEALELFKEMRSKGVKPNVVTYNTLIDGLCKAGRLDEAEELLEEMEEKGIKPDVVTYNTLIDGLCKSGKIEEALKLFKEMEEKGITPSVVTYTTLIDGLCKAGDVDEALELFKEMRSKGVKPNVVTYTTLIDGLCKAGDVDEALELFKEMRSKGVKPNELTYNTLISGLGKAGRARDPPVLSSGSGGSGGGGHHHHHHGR

NL_v2_PPR7 = target: T3, NL_v2_PPR7 (Artificial Sequence); test: ELONA; RPB-ELISA; conditions: tags: N-term luciferase, C-term 6xHis; label: 5'-biotin
T3 chain: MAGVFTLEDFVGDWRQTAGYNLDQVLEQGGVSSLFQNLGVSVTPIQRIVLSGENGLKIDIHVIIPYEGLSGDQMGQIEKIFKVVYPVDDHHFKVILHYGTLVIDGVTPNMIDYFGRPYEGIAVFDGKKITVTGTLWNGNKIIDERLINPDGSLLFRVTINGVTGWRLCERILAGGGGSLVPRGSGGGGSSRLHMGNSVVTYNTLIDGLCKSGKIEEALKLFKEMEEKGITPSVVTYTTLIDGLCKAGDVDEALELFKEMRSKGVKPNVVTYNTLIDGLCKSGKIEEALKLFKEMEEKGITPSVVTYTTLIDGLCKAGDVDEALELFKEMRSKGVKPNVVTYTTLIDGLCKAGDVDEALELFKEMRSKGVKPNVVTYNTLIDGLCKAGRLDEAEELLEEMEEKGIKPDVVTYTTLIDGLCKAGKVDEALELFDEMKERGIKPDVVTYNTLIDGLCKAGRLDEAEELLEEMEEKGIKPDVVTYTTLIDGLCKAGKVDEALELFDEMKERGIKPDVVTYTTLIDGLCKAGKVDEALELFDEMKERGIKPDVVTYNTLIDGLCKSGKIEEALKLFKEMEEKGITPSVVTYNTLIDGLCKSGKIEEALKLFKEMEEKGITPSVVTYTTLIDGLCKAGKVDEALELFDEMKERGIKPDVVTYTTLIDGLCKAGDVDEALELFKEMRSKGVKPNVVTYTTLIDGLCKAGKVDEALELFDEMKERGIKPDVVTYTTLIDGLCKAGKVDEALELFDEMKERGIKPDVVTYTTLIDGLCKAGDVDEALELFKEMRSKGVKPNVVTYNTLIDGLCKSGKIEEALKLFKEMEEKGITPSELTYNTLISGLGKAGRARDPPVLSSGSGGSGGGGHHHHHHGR

v3.1_PPR7 = target: T4, v3.1_PPR7 (Artificial Sequence); test: ELONA; RPB-ELISA; conditions: tags: luciferase fusion; label: 5'-biotin
T4 chain: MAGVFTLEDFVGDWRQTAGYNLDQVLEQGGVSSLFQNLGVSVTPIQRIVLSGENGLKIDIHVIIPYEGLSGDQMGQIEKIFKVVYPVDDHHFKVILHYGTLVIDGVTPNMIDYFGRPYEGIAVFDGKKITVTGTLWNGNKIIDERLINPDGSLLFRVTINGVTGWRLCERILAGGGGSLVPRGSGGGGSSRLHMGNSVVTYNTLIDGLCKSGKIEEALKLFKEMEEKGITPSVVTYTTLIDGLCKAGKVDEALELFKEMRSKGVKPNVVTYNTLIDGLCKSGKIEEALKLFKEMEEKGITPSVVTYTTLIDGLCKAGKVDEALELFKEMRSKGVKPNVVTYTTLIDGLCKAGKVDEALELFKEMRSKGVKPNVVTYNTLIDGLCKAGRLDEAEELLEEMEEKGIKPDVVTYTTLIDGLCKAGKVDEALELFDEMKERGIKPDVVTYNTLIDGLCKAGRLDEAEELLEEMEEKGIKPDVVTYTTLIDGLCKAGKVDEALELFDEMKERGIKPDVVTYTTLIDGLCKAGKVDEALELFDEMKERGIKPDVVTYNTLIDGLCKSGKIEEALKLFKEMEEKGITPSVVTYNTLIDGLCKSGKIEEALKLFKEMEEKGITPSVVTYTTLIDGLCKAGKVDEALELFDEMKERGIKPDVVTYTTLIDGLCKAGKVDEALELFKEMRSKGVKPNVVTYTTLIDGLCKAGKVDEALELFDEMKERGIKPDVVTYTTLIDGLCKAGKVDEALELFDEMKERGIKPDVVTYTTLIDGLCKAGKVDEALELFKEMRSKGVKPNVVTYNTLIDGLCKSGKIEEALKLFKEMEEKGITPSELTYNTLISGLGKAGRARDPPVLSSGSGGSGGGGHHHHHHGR

v3.1_PPR6 = target: T5, v3.1_PPR6 (Artificial Sequence); test: ELONA; RPB-ELISA; conditions: tags: luciferase fusion; label: 5'-biotin
T5 chain: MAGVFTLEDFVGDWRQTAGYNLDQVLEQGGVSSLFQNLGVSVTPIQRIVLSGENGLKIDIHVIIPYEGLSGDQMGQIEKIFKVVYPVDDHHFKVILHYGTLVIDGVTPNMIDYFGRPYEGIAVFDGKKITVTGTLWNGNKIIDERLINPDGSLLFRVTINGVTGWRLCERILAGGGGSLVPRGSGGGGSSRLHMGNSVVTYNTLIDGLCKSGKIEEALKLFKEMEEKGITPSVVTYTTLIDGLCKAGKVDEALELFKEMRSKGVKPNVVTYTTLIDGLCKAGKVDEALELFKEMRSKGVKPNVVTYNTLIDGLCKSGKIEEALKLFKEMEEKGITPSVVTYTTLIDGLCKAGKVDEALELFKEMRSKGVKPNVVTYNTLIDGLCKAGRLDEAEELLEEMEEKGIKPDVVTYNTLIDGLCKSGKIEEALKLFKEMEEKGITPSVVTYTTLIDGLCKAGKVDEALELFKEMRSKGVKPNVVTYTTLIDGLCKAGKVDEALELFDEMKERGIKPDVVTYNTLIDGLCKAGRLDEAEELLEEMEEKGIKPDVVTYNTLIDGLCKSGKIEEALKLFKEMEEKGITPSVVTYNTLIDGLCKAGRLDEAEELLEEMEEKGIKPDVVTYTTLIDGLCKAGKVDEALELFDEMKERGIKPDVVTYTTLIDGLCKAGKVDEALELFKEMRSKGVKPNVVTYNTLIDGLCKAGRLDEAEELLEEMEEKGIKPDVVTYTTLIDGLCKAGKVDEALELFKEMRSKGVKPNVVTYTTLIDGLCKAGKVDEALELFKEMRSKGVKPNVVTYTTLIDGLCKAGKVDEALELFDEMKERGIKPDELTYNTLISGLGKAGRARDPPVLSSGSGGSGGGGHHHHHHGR

GAGAGGAAGCCUGAGAGU [T_2 (in RNA_2)]
binding signal ([1]; RPB-ELISA): 5.7e+07 luminescence

GACAUGCCAACAUCAGUCUGAUAAGGACUG [RNA_6]
binding signal (log2 luminescence) ([2]; off-target, on-target 25.98): 14.4

GAAUGAACUCUUCCGGGA [T_1 (in RNA_1)]
binding signal ([2]; RPB-ELISA): 6.6e+07 luminescence
binding signal (log2 luminescence) ([1]; off-target): 17
binding signal (log2 luminescence) ([3]; off-target, on-target 25.00): 16.7
binding signal (log2 luminescence) ([4]; off-target, on-target 25.83): 18.1

CUGAGUCAUAACCAGCCU [T_3 (in RNA_3)]
binding signal ([3]; RPB-ELISA): 3.3e+07 luminescence

GGCAAAAAGAUCACUGUA [T_5 (in RNA_5)]
binding signal ([4]; RPB-ELISA): 6e+07 luminescence

GACAUGCCACAAUGUGGCCGAGGACGACUG [RNA_7]
binding signal (log2 luminescence) ([1]; off-target cross-binding): 24.8

GACAUGCCACUAUUUAAGUUAUCAAGACUG (ssRNA) [RNA_9]
binding signal (v3.1_PPR9): 2.2e+06 luminescence
binding signal (NL_v2_PPR9): 4.7e+07 luminescence

GACAUGCCACAAUGUGGCCGAGGACGACUG (ssRNA) [RNA_7]
binding signal (NL_v2_PPR7): 1.9e+07 luminescence
binding signal (v3.1_PPR7): 3.4e+07 luminescence

GACAUGCCAACAUCAGUCUGAUAAGGACUG (ssRNA) [RNA_6]
binding signal (v3.1_PPR6): 6.1e+06 luminescence
